Target: laminin-111 (UniProt P19137)
Test: AFM single-molecule force spectroscopy; integrin coupled to PEG-functionalized cantilever, laminin-111 (3 µg/mL) coated on mica; contact 1 s, retraction 300 nm/s; rupture force of the last contact

rupture force	Substance
16 pN	soluble recombinant integrin α7hiβ1 ectodomains (hinge mutant, C604 and C610 replaced by alanine), heterodimerized with the zipper domains of Fos and Jun (from UniProt P05556 21-728) (complex)
30 pN	soluble recombinant integrin α7wtβ1 ectodomains, heterodimerized with the zipper domains of Fos and Jun (from UniProt P05556 21-728) (complex)
